Columns and labels:
HeLa Kyoto [1] = assay: solubility in G1/S (NP-40 vs SDS abundance) (log2 ratio); higher = more soluble; details: cell cycle stage: G1/S
HeLa Kyoto [2] = assay: melting temperature (median over replicates), in situ; higher = more thermally stable
HeLa Kyoto [3] = assay: solubility change mitosis vs G1/S (difference of NP-40 vs SDS log2 ratios) (log2 ratio difference); higher = more soluble in mitosis
HeLa Kyoto [4] = assay: thermal stability score vs G1/S (z-score of summed log2 fold changes over temperatures); higher = more thermally stable than in G1/S
[5] = cell cycle stage: early G1 (4.5 h after nocodazole release)
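Wherever melting temperature (median over replicates), in situ is given: HeLa Kyoto cells synchronized by double thymidine or nocodazole block, proteins quantified by TMT10plex mass spectrometry, three independent biological replicates.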
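Wherever solubility change mitosis vs G1/S (difference of NP-40 vs SDS log2 ratios) is given: synchronized HeLa Kyoto cells (double thymidine block for G1/S, nocodazole release for mitosis), protein amounts in NP-40 versus SDS lysates quantified by mass spectrometry, three biological replicates.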
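Wherever solubility in G1/S (NP-40 vs SDS abundance) is given: HeLa Kyoto cells arrested at G1/S by double thymidine block, proteins quantified by TMT10plex mass spectrometry in mild NP-40 versus SDS extracts, three biological replicates.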
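Wherever thermal stability score vs G1/S (z-score of summed log2 fold changes over temperatures) is given: synchronized HeLa Kyoto cells, proteins quantified by TMT10plex mass spectrometry, three biological replicates, mitosis taken 0.5 h after nocodazole release, G1/S directly after double thymidine block.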

With “MRLRRLALFPGVALLLAAARLAAASDVLELTDDNFESRISDTGSAGLMLVEFFAPWCGHCKRLAPEYEAAATRLKGIVPLAKVDCTANTNTCNKYGVSGYPTLKIFRDGEEAGAYDGPRTADGIVSHLKKQAGPASVPLRTEEEFKKFISDKDASIVGFFDDSFSEAHSEFLKAASNLRDNYRFAHTNVESLVNEYDDNGEGIILFRPSHLTNKFEDKTVAYTEQKMTSGKIKKFIQENIFGICPHMTEDNKDLIQGKDLLIAYYDVDYEKNAKGSNYWRNRVMMVAKKFLDAGHKLNFAVASRKTFSHELSDFGLESTAGEIPVVAIRTAKGEKFVMQEEFSRDGKALERFLQDYFDGNLKRYLKSEPIPESNDGPVKVVVAENFDEIVNNENKDVLIEFYAPWCGHCKNLEPKYKELGEKLSKDPNIVIAKMDATANDVPSPYEVRGFPTIYFSPANKKLNPKKYEGGRELSDFISYLQREATNPPVIQEEKPKKKKKAQEDL [PDIA3]” the “solubility in G1/S (log2)” value (HeLa Kyoto [1]) was 0.299, the melting temperature (HeLa Kyoto [2]; cell cycle stage: G1/S) was 53.3 °C and the melting temperature (HeLa Kyoto [2]; cell cycle stage: mitosis) was 53.7 °C. For the same sequence, the “solubility change mitosis (log2)” value (HeLa Kyoto [3]) was 0.000907, the thermal stability score (HeLa Kyoto [4]; [5]) was 4.82 and the thermal stability score (HeLa Kyoto [4]; cell cycle stage: mitosis) was 4.63.
With “MLGGSLGSRLLRGVGGSHGRFGARGVREGGAAMAAGESMAQRMVWVDLEMTGLDIEKDQIIEMACLITDSDLNILAEGPNLIIKQPDELLDSMSDWCKEHHGKSGLTKAVKESTITLQQAEYEFLSFVRQQTPPGLCPLAGNSVHEDKKFLDKYMPQFMKHLHYRIIDVSTVKELCRRWYPEEYEFAPKKAASHRALDDISESIKELQFYRNNIFKKKIDEKKRKIIENGENEKTVS [REXO2]” the “solubility in G1/S (log2)” value (HeLa Kyoto [1]) was 0.239, the melting temperature (HeLa Kyoto [2]; cell cycle stage: G1/S) was 56.8 °C and the melting temperature (HeLa Kyoto [2]; cell cycle stage: mitosis) was 56.5 °C. The “solubility change mitosis (log2)” value (HeLa Kyoto [3]) was 0.144, the thermal stability score (HeLa Kyoto [4]; [5]) was -2.25 and the thermal stability score (HeLa Kyoto [4]; cell cycle stage: mitosis) was -3.59.
For “MAESPTEEAATAGAGAAGPGASSVAGVVGVSGSGGGFGPPFLPDVWAAAAAAGGAGGPGSGLAPLPGLPPSAAAHGAALLSHWDPTLSSDWDGERTAPQCLLRIKRDIMSIYKEPPPGMFVVPDTVDMTKIHALITGPFDTPYEGGFFLFVFRCPPDYPIHPPRVKLMTTGNNTVRFNPNFYRNGKVCLSILGTWTGPAWSPAQSISSVLISIQSLMTENPYHNEPGFEQERHPGDSKNYNECIRHETIRVAVCDMMEGKCPCPEPLRGVMEKSFLEYYDFYEVACKDRLHLQGQTMQDPFGEKRGHFDYQSLLMRLGLIRQKVLERLHNENAEMDSDSSSSGTETDLHGSLRV [UBE2Z]”, the “solubility in G1/S (log2)” value (HeLa Kyoto [1]) was 0.403, the melting temperature (HeLa Kyoto [2]; cell cycle stage: G1/S) was 52.7 °C and the melting temperature (HeLa Kyoto [2]; cell cycle stage: mitosis) was 52.8 °C. For the same sequence, the “solubility change mitosis (log2)” value (HeLa Kyoto [3]) was -0.169, the thermal stability score (HeLa Kyoto [4]; [5]) was -0.171 and the thermal stability score (HeLa Kyoto [4]; cell cycle stage: mitosis) was -0.398.
In the case of “MSLSRSEEMHRLTENVYKTIMEQFNPSLRNFIAMGKNYEKALAGVTYAAKGYFDALVKMGELASESQGSKELGDVLFQMAEVHRQIQNQLEEMLKSFHNELLTQLEQKVELDSRYLSAALKKYQTEQRSKGDALDKCQAELKKLRKKSQGSKNPQKYSDKELQYIDAISNKQGELENYVSDGYKTALTEERRRFCFLVEKQCAVAKNSAAYHSKGKELLAQKLPLWQQACADPSKIPERAVQLMQQVASNGATLPSALSASKSNLVISDPIPGAKPLPVPPELAPFVGRMSAQESTPIMNGVTGPDGEDYSPWADRKAAQPKSLSPPQSQSKLSDSYSNTLPVRKSVTPKNSYATTENKTLPRSSSMAAGLERNGRMRVKAIFSHAAGDNSTLLSFKEGDLITLLVPEARDGWHYGESEKTKMRGWFPFSYTRVLDSDGSDRLHMSLQQGKSSSTGNLLDKDDLAIPPPDYGAASRAFPAQTASGFKQRPYSVAVPAFSQGLDDYGARSMSRNPFAHVQLKPTVTNDRCDLSAQGPEGREHGDGSARTLAGR [BAIAP2]”, the “solubility in G1/S (log2)” value (HeLa Kyoto [1]) was 0.466, the melting temperature (HeLa Kyoto [2]; cell cycle stage: G1/S) was 50.6 °C and the melting temperature (HeLa Kyoto [2]; cell cycle stage: mitosis) was 51.2 °C. For the same sequence, the “solubility change mitosis (log2)” value (HeLa Kyoto [3]) was 0.0657, the thermal stability score (HeLa Kyoto [4]; [5]) was 0.524 and the thermal stability score (HeLa Kyoto [4]; cell cycle stage: mitosis) was 0.515.
In the case of “MSGTSSHESFYDSLSDMQEESKNTDFFPGLSAFLSQEEINKSLDLARRAIADSETEDFDSEKEISQIFSTSPASLCEHPSHKETKLGEHASRRPQDNRSTPVQPLAEKQTKSISSPVSKRKPAMSPLLTRPSYIRSLRKAEKRGAKTPSTNVKPKTPHQRKGGPQSQLCDKAANLIEELTSIFKAAKPRNRSPNGESSSPDSGYLSPKNQPSALLSASASQSPMEDQGEMEREVKSPGARHCYQDNQDLAVPHNRKSHPQPHSALHFPAAPRFIQKLRSQEVAEGSRVYLECRVTGNPTPRVRWFCEGKELHNTPDIQIHCEGGDLHTLIIAEAFEDDTGRYTCLATNPSGSDTTSAEVFIEGASSTDSDSESLAFKSRAGAMPQAQKKTTSVSLTIGSSSPKTGVTTAVIQPLSVPVQQVHSPTSYLCRPDGTTTAYFPPVFTKELQNTAVAEGQVVVLECRVRGAPPLQVQWFRQGSEIQDSPDFRILQKKPRSTAEPEEICTLVIAETFPEDAGIFTCSARNDYGSATSTAQLVVTSANTENCSYESMGESNNDHFQHFPPPPPILETSSLELASKKPSEIQQVNNPELGLSRAALQMQFNAAERETNGVHPSRGVNGLINGKANSNKSLPTPAVLLSPTKEPPPLLAKPKLDPLKLQQLQNQIRLEQEAGARQPPPAPRSAPPSPPFPPPPAFPELAACTPPASPEPMSALASRSAPAMQSSGSFNYARPKQFIAAQNLGPASGHGTPASSPSSSSLPSPMSPTPRQFGRAPVPPFAQPFGAEPEAPWGSSSPSPPPPPPPVFSPTAAFPVPDVFPLPPPPPPLPSPGQASHCSSPATRFGHSQTPAAFLSALLPSQPPPAAVNALGLPKGVTPAGFPKKASRTARIASDEEIQGTKDAVIQDLERKLRFKEDLLNNGQPRLTYEERMARRLLGADSATVFNIQEPEEETANQEYKVSSCEQRLISEIEYRLERSPVDESGDEVQYGDVPVENGMAPFFEMKLKHYKIFEGMPVTFTCRVAGNPKPKIYWFKDGKQISPKSDHYTIQRDLDGTCSLHTTASTLDDDGNYTIMAANPQGRISCTGRLMVQAVNQRGRSPRSPSGHPHVRRPRSRSRDSGDENEPIQERFFRPHFLQAPGDLTVQEGKLCRMDCKVSGLPTPDLSWQLDGKPVRPDSAHKMLVRENGVHSLIIEPVTSRDAGIYTCIATNRAGQNSFSLELVVAAKEAHKPPVFIEKLQNTGVADGYPVRLECRVLGVPPPQIFWKKENESLTHSTDRVSMHQDNHGYICLLIQGATKEDAGWYTVSAKNEAGIVSCTARLDVYTQWHQQSQSTKPKKVRPSASRYAALSDQGLDIKAAFQPEANPSHLTLNTALVESEDL [PALLD]”, the “solubility in G1/S (log2)” value (HeLa Kyoto [1]) was 0.0775, the melting temperature (HeLa Kyoto [2]; cell cycle stage: G1/S) was 50 °C and the melting temperature (HeLa Kyoto [2]; cell cycle stage: mitosis) was 50.5 °C. The “solubility change mitosis (log2)” value (HeLa Kyoto [3]) was -0.0539, the thermal stability score (HeLa Kyoto [4]; [5]) was 1.21 and the thermal stability score (HeLa Kyoto [4]; cell cycle stage: mitosis) was 3.53.
“MADLAECNIKVMCRFRPLNESEVNRGDKYIAKFQGEDTVVIASKPYAFDRVFQSSTSQEQVYNDCAKKIVKDVLEGYNGTIFAYGQTSSGKTHTMEGKLHDPEGMGIIPRIVQDIFNYIYSMDENLEFHIKVSYFEIYLDKIRDLLDVSKTNLSVHEDKNRVPYVKGCTERFVCSPDEVMDTIDEGKSNRHVAVTNMNEHSSRSHSIFLINVKQENTQTEQKLSGKLYLVDLAGSEKVSKTGAEGAVLDEAKNINKSLSALGNVISALAEGSTYVPYRDSKMTRILQDSLGGNCRTTIVICCSPSSYNESETKSTLLFGQRAKTIKNTVCVNVELTAEQWKKKYEKEKEKNKILRNTIQWLENELNRWRNGETVPIDEQFDKEKANLEAFTVDKDITLTNDKPATAIGVIGNFTDAERRKCEEEIAKLYKQLDDKDEEINQQSQLVEKLKTQMLDQEELLASTRRDQDNMQAELNRLQAENDASKEEVKEVLQALEELAVNYDQKSQEVEDKTKEYELLSDELNQKSATLASIDAELQKLKEMTNHQKKRAAEMMASLLKDLAEIGIAVGNNDVKQPEGTGMIDEEFTVARLYISKMKSEVKTMVKRCKQLESTQTESNKKMEENEKELAACQLRISQHEAKIKSLTEYLQNVEQKKRQLEESVDALSEELVQLRAQEKVHEMEKEHLNKVQTANEVKQAVEQQIQSHRETHQKQISSLRDEVEAKAKLITDLQDQNQKMMLEQERLRVEHEKLKATDQEKSRKLHELTVMQDRREQARQDLKGLEETVAKELQTLHNLRKLFVQDLATRVKKSAEIDSDDTGGSAAQKQKISFLENNLEQLTKVHKQLVRDNADLRCELPKLEKRLRATAERVKALESALKEAKENASRDRKRYQQEVDRIKEAVRSKNMARRGHSAQIAKPIRPGQHPAASPTHPSAIRGGGAFVQNSQPVAVRGGGGKQV [KIF5B]” was tested, and the “solubility in G1/S (log2)” value (HeLa Kyoto [1]) was 0.108, the melting temperature (HeLa Kyoto [2]; cell cycle stage: G1/S) was 51.5 °C and the melting temperature (HeLa Kyoto [2]; cell cycle stage: mitosis) was 51.5 °C. The “solubility change mitosis (log2)” value (HeLa Kyoto [3]) was -0.0355, the thermal stability score (HeLa Kyoto [4]; [5]) was 1.12 and the thermal stability score (HeLa Kyoto [4]; cell cycle stage: mitosis) was 0.152.
In the case of “MGGLFSRWRTKPSTVEVLESIDKEIQALEEFREKNQRLQKLWVGRLILYSSVLYLFTCLIVYLWYLPDEFTARLAMTLPFFAFPLIIWSIRTVIIFFFSKRTERNNEALDDLKSQRKKILEEVMEKETYKTAKLILERFDPDSKKAKECEPPSAGAAVTARPGQEIRQRTAAQRNLSPTPASPNQGPPPQVPVSPGPPKDSSAPGGPPERTVTPALSSNVLPRHLGSPATSVPGMGLHPPGPPLARPILPRERGALDRIVEYLVGDGPQNRYALICQQCFSHNGMALKEEFEYIAFRCAYCFFLNPARKTRPQAPRLPEFSFEKRQVVEGSSSVGPLPSGSVLSSDNQFNEESLEHDVLDDNTEQTDDKIPATEQTNQVIEKASDSEEPEEKQETENEEASVIETNSTVPGADSIPDPELSGESLTAE”, the “solubility in G1/S (log2)” value (HeLa Kyoto [1]) was -0.311, the melting temperature (HeLa Kyoto [2]; cell cycle stage: G1/S) was 55 °C and the melting temperature (HeLa Kyoto [2]; cell cycle stage: mitosis) was 56.9 °C. The “solubility change mitosis (log2)” value (HeLa Kyoto [3]) was -0.0648, the thermal stability score (HeLa Kyoto [4]; [5]) was -1.47 and the thermal stability score (HeLa Kyoto [4]; cell cycle stage: mitosis) was -0.475.
